Results published in patent US20200339967, “CAS12C COMPOSITIONS AND METHODS OF USE” (The Regents of the University of California, published 2020).

B1: Cas12c_1 trancRNA (long) (ssRNA)
RNA: AUACCACCCGUGCAUUUCUGGAUCAAUGAUCCGUACCUCAAUGUCCGGGCGCGCAGCUAGAGCGACCUGAAAUCUGCACGAAAACCGGCGAAAGCCGGUUUUUUGU
B2: Cas12c_1 trancRNA (short) (ssRNA)
RNA: AUACCACCCGUGCAUUUCUGGAUCAAUGAUCCGUACCUCAAUGUCCGGGCGCGCAGCUAGAGCGACCUGAAAUCU

How the values were obtained:
[1] = target: T1, Cas12c_1 (C2c3_1); test: pulldown; trancRNA co-purified with Cas12c and guide RNA; RNA sequencing and urea-PAGE; long vs short form not distinguished in text
T1 chain: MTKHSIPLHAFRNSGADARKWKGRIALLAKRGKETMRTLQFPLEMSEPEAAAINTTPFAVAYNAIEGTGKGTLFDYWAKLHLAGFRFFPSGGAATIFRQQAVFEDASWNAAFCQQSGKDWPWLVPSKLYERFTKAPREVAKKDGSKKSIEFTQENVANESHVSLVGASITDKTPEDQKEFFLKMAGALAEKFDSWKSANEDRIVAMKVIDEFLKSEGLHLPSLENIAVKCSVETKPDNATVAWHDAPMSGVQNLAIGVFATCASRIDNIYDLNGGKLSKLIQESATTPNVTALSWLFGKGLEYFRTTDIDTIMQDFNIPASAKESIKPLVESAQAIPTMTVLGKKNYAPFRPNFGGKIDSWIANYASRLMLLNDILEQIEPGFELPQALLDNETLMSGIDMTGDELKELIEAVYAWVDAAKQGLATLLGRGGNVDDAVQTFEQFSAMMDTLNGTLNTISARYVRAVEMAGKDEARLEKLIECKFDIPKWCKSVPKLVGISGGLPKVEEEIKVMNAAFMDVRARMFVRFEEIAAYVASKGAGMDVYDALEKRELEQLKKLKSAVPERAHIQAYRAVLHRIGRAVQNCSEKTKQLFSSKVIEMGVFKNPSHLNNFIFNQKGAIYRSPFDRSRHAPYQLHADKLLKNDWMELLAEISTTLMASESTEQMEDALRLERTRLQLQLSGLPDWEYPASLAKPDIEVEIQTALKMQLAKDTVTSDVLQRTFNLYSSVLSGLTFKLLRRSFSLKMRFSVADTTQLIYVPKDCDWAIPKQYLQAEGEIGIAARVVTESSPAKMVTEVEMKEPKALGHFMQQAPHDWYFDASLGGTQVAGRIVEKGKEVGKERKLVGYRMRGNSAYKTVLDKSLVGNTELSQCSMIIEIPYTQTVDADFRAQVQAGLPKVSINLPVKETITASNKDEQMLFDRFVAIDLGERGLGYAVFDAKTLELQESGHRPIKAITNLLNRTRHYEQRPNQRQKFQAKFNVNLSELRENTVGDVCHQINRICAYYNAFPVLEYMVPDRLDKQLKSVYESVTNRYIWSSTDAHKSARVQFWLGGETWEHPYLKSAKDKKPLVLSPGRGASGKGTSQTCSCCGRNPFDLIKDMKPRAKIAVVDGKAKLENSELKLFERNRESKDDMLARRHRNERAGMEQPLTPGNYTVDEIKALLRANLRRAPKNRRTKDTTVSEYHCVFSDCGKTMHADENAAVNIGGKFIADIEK
Text: FIG. 3. The Cas12c CRISPR/Cas locus (for the Cas12c_1 protein) was transferred to and expressed in E. coli. Results from the RNA mapping of the Cas12c locus are presented (Top). In addition, the Cas12c protein was tagged and purified, and the RNA that was associated with the protein was sequenced, and results from the RNA mapping are presented (bottom). Both mapping results indicated the existence of a highly transcribed non-coding transcript adjacent to the Cas1-encoding sequence but on the opposite side of the Cas1-encoding sequence as the CRISPR array (Small repeating aligned arrows represent the repeats of the CRISPR array). The highly transcribed noncoding RNA is not complementary to the directed repeat as are transactivating CRISPR RNAs (tracrRNA). The transactivating noncoding RNA is referred herein as “trancRNA”.
FIG. 4. RNAs that pulled down (co-purified) with the Cas12c protein were run on urea-PAGE gels, confirming the presence of guide RNA and trancRNA.

[2] = target: T1, Cas12c_1 (C2c3_1); test: pulldown; trancRNA co-purified with Cas12c and guide RNA; long vs short form not distinguished in text

| Binder | binding result [1] | binding result [2] |
| --- | --- | --- |
| B1 | binds |  |
| B2 |  | binds |
